According to patent US20230140868A1, “COMPOSITIONS AND METHODS FOR TREATING CANCER” (Alpha Beta Holdings, LLC, priority 2020, published 2023):

Key:
tumor cells [1] = experiment: In vitro ADCC with human monocyte-derived macrophages from healthy donor blood (LM609); format: cell-based; details: effector: human monocyte-derived macrophages from healthy donor blood
Procedure: (§1) Human peripheral blood mononuclear cells (PBMCs) and macrophages were isolated using leukoreduction system chambers (LRSC) purchased from the San Diego Blood Bank. PBMCs were isolated from LRSC using Histopaque-1083 (Sigma, 10831) following the manufacturer's protocol. To obtain macrophages, PBMCs were incubated in tissue culture plates with human M-CSF (Peprotech, 300-25) for 5 days.
(§2) We used the isolated macrophages as effector cells in an antibody-dependent cellular-cytotoxicity (ADCC) assay. […] The ratio of dead target cells (PI-positive) to the total target cell population (CFSE-positive) was calculated as described (Bracher, 2007).

[2] = test system: HCC827-R18 erlotinib-resistant tumor cells; experiment: Re-sensitization of erlotinib-resistant HCC827-R18 xenografts (FIG. 1); format: in vivo, nu/nu mice; details: LM609 i.p., 10 mg/kg, twice/week with erlotinib 6.25 mg/kg vs erlotinib alone
Procedure: HCC827-R18 and PC9-R4L erlotinib-resistant tumor cells generated as reported in Wettersten et al., Cancer Res. 79:5048 (2019), incorporated by reference herein in its entirety, were injected to form subcutaneous flank tumors in nu/nu recipient mice. […] Tumor dimensions were measured biweekly and volume calculated as […].
To generate erlotinib-resistant tumors […], HCC827 or PC9 human lung cancer cells (5×10^6 tumor cells in 100 μl of PBS) were subcutaneously injected to the right flank of female nu/nu mice (Charles River, 088, 8-10 weeks old) and tumors were measured with calipers twice per week. Animals with a tumor volume of 100-200 mm^3 were randomly assigned into groups treated with combinations of Captisol (oral, six times/week) or erlotinib (oral, 6.25 mg/kg, six times/week). For each of the individual tumors shown in Figure S3 of Wettersten et al., Cancer Res. 79:5048 (2019)}, vehicle-treated erlotinib sensitive (HCC827-P and PC9-P) and erlotinib-resistant (HCC827-R18 and PC9-R4L) cells were isolated. A gain of αvβ3 expression on the cell surface of the erlotinib-resistant tumor cells was confirmed by flow cytometry.

tumor cells [3] = experiment: In vitro ADCC with human PBMCs; format: cell-based; details: effector: PBMCs isolated from human blood
Procedure: as §1, §2
To our surprise, LM609-mediated ADCC was not achieved with mouse NK cells or peripheral blood mononuclear cells (PBMCs) isolated from human blood, immune effector cell types to which antibodies are commonly engineered for optimal binding (Listinsky, 2013; Yu, 2017). In fact, NK cells are not correlated with β3 expression in tumors. These findings were reported in FIG. 3E of Wettersten et al., Cancer Res. 79:5048 (2019).

[4] = test system: αvβ3-expressing human lung cancer cells; experiment: In vitro ADCC, primary human monocyte-derived macrophages as effector cells (FIG. 10A); format: cell-based; details: increasing E:T
Text: (A) In vitro ADCC for primary human monocyte-derived macrophages as effector cells. (B). In vitro ADCC for human NK cells as effector cells. Graphs show effect of increasing effector-to-target ratio (E:T) on death of αvβ3-expressing human lung cancer cells.
This distinction could produce a therapeutic advantage by achieving matching between the antigen (integrin αvβ3) and the types of effector cells that are particularly enriched in αvβ3-expressing tumors, such as macrophages.

tumor cells [5] = experiment: In vitro ADCC with TAMs isolated from mouse Lewis lung carcinoma tumors; format: cell-based; details: effector: TAMs from LLC tumors grown in C57BL6 or athymic nude mice
Procedure: TAMs were isolated from tumor tissues as described (Kaneda, 2016). Tumors were dissociated in HBSS containing collagenase IV (Sigma, C5138), hyaluronidase (Sigma, H2654), dispase 11 (Roche, 04942078001), and DNase IV (Millipore, D5025) at 37° C. for 15 minutes. Cell suspensions were filtered through 70 μm cell strainers and washed with PBS. Single cell suspensions (10^6 cells/100 μl in 5% BSA in PBS) were incubated with Mouse BD Fc Block™ (BD Biosciences, 553142, 1:50) for 10 minutes at 4° C. and fluorescently labeled antibodies, CD11b (eBioscience, 17-0112-81, 1:100), and Ly-6G (eBioscience, 25-5931-81, 1:100), for one hour at 4° C. TAMs (CD11b-positive, Ly-6G-negative) were sorted.
as §2

[6] = test system: αvβ3-expressing human lung xenograft tumors; experiment: αvβ3-expressing human lung xenograft with or without macrophage depletion; format: in vivo, nude mice
Text: (§3) Successful depletion of macrophages by clodronate treatment was confirmed by staining tumor sections for the mouse macrophage marker F4/80.

tumor cells [7] = experiment: In vitro ADCC with mouse bone marrow derived macrophages (LM609); format: cell-based; details: effector: BMDM isolated from healthy mice
Procedure: Mouse bone marrow-derived macrophages (BMDMs) were aseptically harvested from euthanized 8-10 week-old female C57BL/6 mice by flushing leg bones with RPMI, filtering through 70 μm cell strainers, and incubating in Red Blood Cell Lysing Buffer Hybri-Max™ (Sigma, R7757). Cells were incubated with mouse M-CSF (Peprotech, 315-02) for 7 days before ADCC assays.
as §2

[8] = test system: αvβ3-expressing human pancreatic xenograft tumors; experiment: αvβ3-expressing human pancreatic xenograft with or without macrophage depletion; format: in vivo, nude mice
Text: as §3

[9] = macrophage depletion using clodronate liposomes
[10] = reported in FIG. 2A of Wettersten et al.

B1: LM609: mouse monoclonal IgG1K antibody that recognizes human integrin αvβ3; SEQ ID NO:11 and 12 (antibody)
heavy: MNFGLRLIFLVLTLKGVKCEVQLVESGGGLVKPGGSLKLSCAASGFAFSSYDMSWVRQIPEKRLEWVAKVSSGGGSTYYLDTVQGRFTISRDNAKNTLYLQMSSLNSEDTAMYYCARHNYGSFAYWGQGTLVTVSAAKTTPPSVYPLAPGSAAQTNSMVTLGCLVKGYFPEPVTVTWNSGSLSSGVHTFPAVLQSDLYTLSSSVTVPSSTWPSETVTCNVAHPASSTKVDKKIVPRDCGCKPCICTVPEVSSVFIFPPKPKDVLTITLTPKVTCVVVDISKDDPEVQFSWFVDDVEVHTAQTQPREEQFNSTFRSVSELPIMHQDWLNGKEFKCRVNSAAFPAPIEKTISKTKGRPKAPQVYTIPPPKEQMAKDKVSLTCMITDFFPEDITVEWQWNGQPAENYKNTQPIMDTDGSYFVYSKLNVQKSNWEAGNTFTCSVLHEGLHNHHTEKSLSHSPGK
light: MVFTPQILGLMLFWISASRGDIVLTQSPATLSVTPGDSVSLSCRASQSISNHLHWYQQKSHESPRLLIKYASQSISGIPSRFSGSGSGTDFTLSINSVETEDFGMYFCQQSNSWPHTFGGGTKLEIKRADAAPTVSIFPPSSEQLTSGGASVVCFLNNFYPKDINVKWKIDGSERQNGVLNSWTDQDSKDSTYSMSSTLTLTKDEYERHNSYTCEATHKTSTSPIVKSFNRNEC
modifications: mAb LM609-mIgG1-kappa Heavy chain; mAb LM609-mIgG1-kappa Light chain
In the case of B1, the “ADCC (tumor cell killing)” value (tumor cells [1]) is reported as “could also kill tumor cells”, the “re-sensitization of resistant tumors to erlotinib (tumor volume)” value [2] is reported as “able to re-sensitize resistant tumors to the growth inhibitory effects of erlotinib” and the “LM609-mediated ADCC” value (tumor cells [3]) is reported as “not achieved”. The “ADCC with human macrophages as effector cells” value [4] was “able to induce ADCC”, the ADCC activity (tumor cells [5]) was “robust ADCC activity” and the “anti-tumor effect after macrophage depletion” value [6, 9] was “completely blocked”. The “sensitivity of xenograft tumors to LM609” value [6, 10] was “highly sensitive”, the “ADCC (tumor cell killing)” value (tumor cells [7]) was “could also kill tumor cells” and the “anti-tumor effect after macrophage depletion” value [8, 9] was “completely blocked”. For the same molecule, the “sensitivity of xenograft tumors to LM609” value [8, 10] was “highly sensitive”.
